This assay has as its target T1, core protein gp16 (bacteriophage T7), P03726.
T1 chain: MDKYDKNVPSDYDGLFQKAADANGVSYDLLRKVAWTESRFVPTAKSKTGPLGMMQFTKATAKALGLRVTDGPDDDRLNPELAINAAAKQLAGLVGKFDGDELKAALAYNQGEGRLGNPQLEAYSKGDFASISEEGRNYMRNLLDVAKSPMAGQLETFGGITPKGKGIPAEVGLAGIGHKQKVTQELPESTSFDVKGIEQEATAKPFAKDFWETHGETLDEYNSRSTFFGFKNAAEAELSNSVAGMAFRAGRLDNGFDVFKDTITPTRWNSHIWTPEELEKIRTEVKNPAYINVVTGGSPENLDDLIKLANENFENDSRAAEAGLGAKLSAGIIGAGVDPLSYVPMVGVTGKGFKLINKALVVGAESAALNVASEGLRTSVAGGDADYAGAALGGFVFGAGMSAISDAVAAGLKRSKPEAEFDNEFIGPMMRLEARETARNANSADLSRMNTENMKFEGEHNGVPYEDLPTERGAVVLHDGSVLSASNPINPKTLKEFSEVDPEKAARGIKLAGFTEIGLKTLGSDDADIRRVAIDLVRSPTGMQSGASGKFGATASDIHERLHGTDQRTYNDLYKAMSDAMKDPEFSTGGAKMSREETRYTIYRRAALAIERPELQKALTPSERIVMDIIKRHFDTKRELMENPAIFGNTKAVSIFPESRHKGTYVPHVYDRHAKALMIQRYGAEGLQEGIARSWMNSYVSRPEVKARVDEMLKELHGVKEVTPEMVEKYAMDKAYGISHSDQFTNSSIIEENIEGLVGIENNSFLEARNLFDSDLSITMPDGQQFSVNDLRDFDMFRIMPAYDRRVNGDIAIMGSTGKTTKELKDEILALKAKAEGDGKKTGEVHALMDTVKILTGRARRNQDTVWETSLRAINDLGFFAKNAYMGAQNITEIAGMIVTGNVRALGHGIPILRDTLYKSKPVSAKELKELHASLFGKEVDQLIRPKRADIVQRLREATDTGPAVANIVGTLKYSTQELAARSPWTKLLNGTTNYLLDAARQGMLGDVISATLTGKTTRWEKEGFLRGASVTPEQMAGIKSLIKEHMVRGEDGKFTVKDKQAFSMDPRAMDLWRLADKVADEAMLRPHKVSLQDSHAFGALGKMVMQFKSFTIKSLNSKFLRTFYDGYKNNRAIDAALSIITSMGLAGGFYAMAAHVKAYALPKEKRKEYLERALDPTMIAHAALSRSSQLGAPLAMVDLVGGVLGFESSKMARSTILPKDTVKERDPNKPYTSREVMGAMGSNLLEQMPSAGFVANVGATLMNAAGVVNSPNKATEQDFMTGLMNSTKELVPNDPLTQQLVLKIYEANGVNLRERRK
Kind of assay: cryo-EM structure; mature T7 virions, in situ; entire particle asymmetric 6.1 Å; local reconstructions of core complex 3 Å (four-fold), portal 2.5 Å (twelve-fold), portal–tail complex 2.7 Å (six-fold). The following applies: remark: other sources report otherwise.

B1: core protein gp16, P03726 1-1318 (natural protein)
chain: MDKYDKNVPSDYDGLFQKAADANGVSYDLLRKVAWTESRFVPTAKSKTGPLGMMQFTKATAKALGLRVTDGPDDDRLNPELAINAAAKQLAGLVGKFDGDELKAALAYNQGEGRLGNPQLEAYSKGDFASISEEGRNYMRNLLDVAKSPMAGQLETFGGITPKGKGIPAEVGLAGIGHKQKVTQELPESTSFDVKGIEQEATAKPFAKDFWETHGETLDEYNSRSTFFGFKNAAEAELSNSVAGMAFRAGRLDNGFDVFKDTITPTRWNSHIWTPEELEKIRTEVKNPAYINVVTGGSPENLDDLIKLANENFENDSRAAEAGLGAKLSAGIIGAGVDPLSYVPMVGVTGKGFKLINKALVVGAESAALNVASEGLRTSVAGGDADYAGAALGGFVFGAGMSAISDAVAAGLKRSKPEAEFDNEFIGPMMRLEARETARNANSADLSRMNTENMKFEGEHNGVPYEDLPTERGAVVLHDGSVLSASNPINPKTLKEFSEVDPEKAARGIKLAGFTEIGLKTLGSDDADIRRVAIDLVRSPTGMQSGASGKFGATASDIHERLHGTDQRTYNDLYKAMSDAMKDPEFSTGGAKMSREETRYTIYRRAALAIERPELQKALTPSERIVMDIIKRHFDTKRELMENPAIFGNTKAVSIFPESRHKGTYVPHVYDRHAKALMIQRYGAEGLQEGIARSWMNSYVSRPEVKARVDEMLKELHGVKEVTPEMVEKYAMDKAYGISHSDQFTNSSIIEENIEGLVGIENNSFLEARNLFDSDLSITMPDGQQFSVNDLRDFDMFRIMPAYDRRVNGDIAIMGSTGKTTKELKDEILALKAKAEGDGKKTGEVHALMDTVKILTGRARRNQDTVWETSLRAINDLGFFAKNAYMGAQNITEIAGMIVTGNVRALGHGIPILRDTLYKSKPVSAKELKELHASLFGKEVDQLIRPKRADIVQRLREATDTGPAVANIVGTLKYSTQELAARSPWTKLLNGTTNYLLDAARQGMLGDVISATLTGKTTRWEKEGFLRGASVTPEQMAGIKSLIKEHMVRGEDGKFTVKDKQAFSMDPRAMDLWRLADKVADEAMLRPHKVSLQDSHAFGALGKMVMQFKSFTIKSLNSKFLRTFYDGYKNNRAIDAALSIITSMGLAGGFYAMAAHVKAYALPKEKRKEYLERALDPTMIAHAALSRSSQLGAPLAMVDLVGGVLGFESSKMARSTILPKDTVKERDPNKPYTSREVMGAMGSNLLEQMPSAGFVANVGATLMNAAGVVNSPNKATEQDFMTGLMNSTKELVPNDPLTQQLVLKIYEANGVNLRERRK
In general, stoichiometry N refers to a count of units in the complex or per binding partner. As to B1, the stoichiometry N stood at 4.

(Values after article PMC11784390, “Conformational changes in and translocation of small proteins: insights into the ejection mechanism of podophages” (Journal of Virology, 2024).)
